The values below come from patent US20260078162A1.

Experiment [1] concerns the target BCMA-CAR with a CD3zeta signaling motif on CAR-Jurkat cells. Briefly: cell-based or functional assay.
For experiment [2], the target named is anti-CD19 chimeric antigen receptor (CAR) on Jurkat NFAT-GFP cells. Briefly: cell-based or functional assay.

In the case of “BCMAwt-Fc fusion protein (pDP39-BCMA ECD-FC)”, the IC50 of inhibition of BCMA-CAR-Jurkat cell activation (CD69) by NCI-H929 cells in experiment [1] came to 36 nM.

For “CD19 wt-Fc (pDP10 CD19-WT FC) (Fc fusion)”, in experiment [2], the IC50 of inhibition of CAR-Jurkat activation (NFAT-GFP) by K562 cells worked out at 200 nM and the NFAT-GFP downregulated at the maximum concentration tested came out at 30%.
